These results are taken from paper PMC7494816, “Stoichiometry of Rtt109 complexes with Vps75 and histones H3-H4” (Life Science Alliance, 2020).

Series [1] deals with the molecule itself. In words: AUC; sedimentation velocity, van Holde–Weischet analysis; 7.5 μM Vps75 with 0, 0.5 and 1.0 equivalent of Rtt109; 20 mM Tris pH 7.5, 300 mM NaCl, 0.5 mM TCEP, 20°C.
Series [2] concerns the molecule itself. In words: AUC; sedimentation velocity, van Holde–Weischet analysis; 7.5 μM Vps75 with 0, 0.5 and 1.0 equivalent of Rtt109; 20 mM Tris pH 7.5, 150 mM NaCl, 0.5 mM TCEP, 20°C.
In series [3] the target is T1, Xenopus laevis histones H3-H4 (wild type), refolded (Xenopus laevis, UniProt P84233 1-136; P62799 1-103).
T1 construct: histone H3, Xenopus laevis, wild type; histone H4, Xenopus laevis; One H3-H4 dimer is the unit used for concentrations and equivalents; it can form the (H3-H4)2 tetramer; also called (H3-H4)2 tetramer; H3-H4 dimer; source: bought unfolded: the Histone Source at Colorado State University
In words: AUC; sedimentation velocity; 0.5 or 1 equivalent of H3-H4 or H3DM-H4 titrated against Vps75–Rtt109 reconstituted at 2:2 or 2:1 (relative to 7.5 μM Vps75), with 2:2 mixes of Vps75 and histones for reference; 20 mM Tris pH 7.5, 150 mM NaCl, 0.5 mM TCEP, 20°C. Particulars: both partners purified.

Series [4] concerns the molecule itself. In words: SEC-MALS; anion exchange peaks P1, P2, P3 of co-expressed, co-purified Vps75–Rtt109, 20 μM; Superdex 200 Increase 10/300 GL; 20 mM Tris–HCl pH 7.5, 300 mM NaCl, 0.5 mM TCEP. A general note: SEC sorts molecules by how far they enter the pores of the column.

B1: Vps75 (Saccharomyces cerevisiae), individually expressed and purified (natural protein, UniProt P53853 1-264, looked up)
chain: MMSDQENENEHAKAFLGLAKCEEEVDAIEREVELYRLNKMKPVYEKRDAYIDEIAEFWKIVLSQHVSFANYIRASDFKYIDTIDKIKVEWLALESEMYDTRDFSITFHFHGIEGDFKEQQVTKVFQIKKGKDDQEDGILTSEPVPIEWPQSYDSINPDLIKDKRSPEGKKKYRQGMKTIFGWFRWTGLKPGKEFPHGDSLASLFSEEIYPFCVKYYAEAQRDLEDEEGESGLSADGDSEDDDGSLGEVDLPLSDEEPSSKKRKV
notes: Vps75, histone chaperone, Saccharomyces cerevisiae; also called Vps75 dimer; Vps75 tetramer; source: individually expressed and purified as previously described (Park et al, 2008)
Turning to B1, the “stoichiometry N” value in series [1] is 2 chains of Vps75 (dimer); in series [2], 4 chains of Vps75 (tetramer). In addition, the binding result in series [3] is reported as “binds”.

B2: Vps75 co-expressed with his–Rtt109 from pRSFDuet-1 (natural protein, Saccharomyces cerevisiae, UniProt P53853 1-264, looked up)
chain: MMSDQENENEHAKAFLGLAKCEEEVDAIEREVELYRLNKMKPVYEKRDAYIDEIAEFWKIVLSQHVSFANYIRASDFKYIDTIDKIKVEWLALESEMYDTRDFSITFHFHGIEGDFKEQQVTKVFQIKKGKDDQEDGILTSEPVPIEWPQSYDSINPDLIKDKRSPEGKKKYRQGMKTIFGWFRWTGLKPGKEFPHGDSLASLFSEEIYPFCVKYYAEAQRDLEDEEGESGLSADGDSEDDDGSLGEVDLPLSDEEPSSKKRKV
notes: Vps75, Saccharomyces cerevisiae; multiple cloning site 2 of pRSFDuet-1; source: E. coli Rosetta (DE3) pLysS, co-expressed with his–Rtt109, in lysate; co-purified (HisTrap, MonoQ)
Take B2: in series [4], the “stoichiometry N” value was 2 chains of Vps75 (dimer).
